Test results as given in patent US6593099B2, “Regulation of human S-acyl fatty acid synthase thioesterase-like enzyme” (Bayer Aktiengesellschaft, priority 2000, dated 2003).

How the values were obtained:
[1] = target: T1, S-acyl fatty acid synthase thioesterase-like enzyme short (long) polypeptide (coolEST49) (Homo sapiens, UniProt Q9NV23); test: Discontinuous DTNB thioesterase activity / inhibition assay with palmitoyl CoA; assay type: biochemical; settings: 1 mM AEBSF
T1 construct: 6xHis (N); made in house; host or cells: E. coli BL21 (DE3), pET-28a
T1 sequence (Q9NV23 whole entry): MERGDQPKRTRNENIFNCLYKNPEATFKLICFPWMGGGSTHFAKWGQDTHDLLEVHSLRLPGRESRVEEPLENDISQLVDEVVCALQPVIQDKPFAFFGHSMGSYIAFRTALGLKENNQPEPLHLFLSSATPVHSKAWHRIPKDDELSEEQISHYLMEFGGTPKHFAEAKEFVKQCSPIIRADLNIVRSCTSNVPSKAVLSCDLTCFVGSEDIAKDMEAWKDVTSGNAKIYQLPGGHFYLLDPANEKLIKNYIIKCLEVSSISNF
Protocol: Activity of both protein peaks was assayed using an optimized discontinuous assay format. Reaction mixture was 100 mM Tris (pH 8.0), 100 nM coolEST49,±0.1 mM palmitoyl CoA in a volume of 100 μL. The mixture was allowed to incubate at room temperature for 3 hours. After incubation, 150 μL of developer mixture (0.42 mM DTNB in 100 mM Tris) was added, and the absorbance at 412 nm was measured using a 96-well plate reader, using samples without palmitoyl CoA as blanks.
Activity of S-acyl fatty acid synthase thioesterase-like enzyme short (long) polypeptide from the anion exchange column was assayed and compared to that of the eluate from the Ni-NTA column step. An attempt was also made at inhibiting S-acyl fatty acid synthase thioesterase-like enzyme short (long) polypeptide with either DEPC (7 mM) or AEBSF (1 mM).

[2] = target: T2, S-acyl fatty acid synthase thioesterase-like enzyme short (long) polypeptide (Homo sapiens, UniProt Q9NV23); test: Continuous DTNB assay, kinetics and substrate searching; settings: Batch 1 from baculovirus
T2 sequence (Q9NV23 whole entry): as above
Protocol: (§1) A continuous assay format was used to get kinetic information on this preparation of S-acyl fatty acid synthase thioesterase-like enzyme short (long) polypeptide, using the same conditions as with the discontinuous assay, except with this format, developer was added to enzyme until a flat signal was achieved, then the reaction was started by the addition of substrate. Along with palmitoyl CoA, the other substrates assayed were acetyl CoA, octanoyl CoA, decanoyl CoA, and lauroyl CoA.
(§2) S-acyl fatty acid synthase thioesterase-like enzyme short (long) polypeptide activity was assayed in the continuous format as described.

[3] = target: T2, S-acyl fatty acid synthase thioesterase-like enzyme short (long) polypeptide; test: Comparison of continuous and discontinuous assay format (pre-incubation with DTNB); assay type: biochemical; parameters: His6; made in house; host or cells: Sf9 insect cells, baculovirus; settings: DTNB at the concentrations used in the continuous assay format
Protocol: S-acyl fatty acid synthase thioesterase-like enzyme short (long) polypeptide was incubated in the presence or absence of DTNB, and the A412 was monitored until a baseline was achieved. Substrate (palmitoyl CoA) was then added to each incubation and was incubated for an additional 50 minutes. After this period of time, A412 of each sample was compared to determine whether the pre-incubation of enzyme with DTNB inactivates the enzyme. Enzyme without substrate was used as a blank for the discontinuous assay.

[4] = test system: CCCCCCCCCC(=O)SCCNC(=O)CCNC(=O)[C@H](O)C(C)(C)COP(=O)(O)OP(=O)(O)OC[C@H]1O[C@@H](n2cnc3c(N)ncnc32)[C@H](O)[C@@H]1OP(=O)(O)O; test: purified protein, by the assay type; settings: other: Batch 1 from baculovirus, continuous assay
Protocol: as §1, §2

[5] = test system: CCCCCCCCCCCC(=O)SCCNC(=O)CCNC(=O)[C@H](O)C(C)(C)COP(=O)(O)OP(=O)(O)OC[C@H]1O[C@@H](n2cnc3c(N)ncnc32)[C@H](O)[C@@H]1OP(=O)(O)O; test: purified protein, by the assay type; settings: other: Batch 1 from baculovirus, continuous assay
Protocol: as §1, §2

[6] = test system: CCCCCCCC(=O)SCCNC(=O)CCNC(=O)[C@H](O)C(C)(C)COP(=O)(O)OP(=O)(O)OC[C@H]1O[C@@H](n2cnc3c(N)ncnc32)[C@H](O)[C@@H]1OP(=O)(O)O; test: purified protein, by the assay type; settings: other: Batch 1 from baculovirus, continuous assay
Protocol: as §1, §2

[7] = test system: CCCCCCCCCCCCCCCC(=O)SCCNC(=O)CCNC(=O)[C@H](O)C(C)(C)COP(=O)(O)OP(=O)(O)OC[C@H]1O[C@@H](n2cnc3c(N)ncnc32)[C@H](O)[C@@H]1OP(=O)(O)O; test: purified protein, by the assay type; settings: continuous assay
Protocol: as §1, §2

[8] = other: Batch 1 from baculovirus

In the case of `Cl.NCCc1ccc(S(=O)(=O)F)cc1` [AEBSF, 4-(2-Aminoethyl)Benzenesulfonyl Fluoride Hydrochloride], the “Inhibition of S-acyl fatty acid synthase thioesterase-like enzyme short (long) polypeptide activity” value [1] is reported as “inhibited”.

In the case of `CC(=O)SCCNC(=O)CCNC(=O)[C@H](O)C(C)(C)COP(=O)(O)OP(=O)(O)OC[C@H]1O[C@@H](n2cnc3c(N)ncnc32)[C@H](O)[C@@H]1OP(=O)(O)O` [Acetyl CoA], the Km [2] is reported as “immeasurable” and the kcat ([2]; footnote: 1.0 = 23 mOD/min) is reported as “immeasurable”.

`O=C(O)c1cc(SSc2ccc([N+](=O)[O-])c(C(=O)O)c2)ccc1[N+](=O)[O-]` [DTNB, 5,5′-dithiobis(2-nitrobenzoic acid)] was tested, and the “Inactivation of the enzyme” value [3] was 60%.

“S-acyl fatty acid synthase thioesterase-like enzyme short (long) polypeptide (Homo sapiens)” was tested, and the Km [4] was 856.1 µM, the kcat [4] was 0.0467 s⁻¹ and the Km [5] was 76.7 µM. For the same compound, the kcat [5] was 0.0167 s⁻¹, the Km [6] was 12,400 μM and the kcat [6] was 0.115 s⁻¹. The Km [7, 8] was 5.1 µM, the kcat [7, 8] was 0.0167 s⁻¹ and the Km ([7]; other: Batch 2 from baculovirus) was 2.4 µM.
